Test results taken from US20230250156A1 (QUADRUCEPT BIO, published 2023).
Where two headings read alike, the source gives them in different places.

B1: Q177 (VHH QB-GB-TD) (VHH)
VHH: QVQLQESGGGLVQAGGSLRLSCAASGRTFSEYAMGWFRQAPGKEREFVATISWSGGSTYYTDSVKGRFTISRDNAKNTVYLQMNSLKPDDTAVYYCAAAGLGTVVSEWDYDYDYWGQGTQVTVSS
B2: Q178 (VHH QB-GB IgG, non-Quad format) (VHH)
VHH: B1 VHH
B3: Q185 (VHH QB-GB dimeric TD) (VHH)
VHH: B1 VHH
B4: Q179 (VHH QB-GB Ig-TD) (VHH)
VHH: B1 VHH
B5: QB-FE VHH (monovalent) (VHH)
VHH: QVQLVESGGGSVQAGGSLRLSCAASGTIAHIKYLGWFRQAPGKEREGVAALMTKWGQTYYADSVKGRFTVSLDNAKNTVYLQMNSLKPEDTALYYCAAASYGANFPLKASDYSYWGQGTQVTVS
B6: Q180/Q182 (VHH QB-GB Fab-like Ig, non-Quad format) (VHH)
heavy: not shown
light: QVQLQESGGGLVQAGGSLRLSCAASGRTFSEYAMGWFRQAPGKEREFVATISWSGGSTYYTDSVKGRFTISRDNAKNTVYLQMNSLKPDDTAVYYCAAAGLGTVVSEWDYDYDYWGQGTQVTVSSGGGGSGGGGSKRTVAAPSVFIFPPSDEQLKSGTASVVCLLNNFYPREAKVQWKVDNALQSGNSQESVTEQDSKDSTYSLSSTLTLSKADYEKHKVYACEVTHQGLSSPVTKSFNRGEC
B7: Q186/Q182 (VHH QB-GB Fab'-like TD, octavalent GB Quad) (VHH)
heavy: QVQLQESGGGLVQAGGSLRLSCAASGRTFSEYAMGWFRQAPGKEREFVATISWSGGSTYYTDSVKGRFTISRDNAKNTVYLQMNSLKPDDTAVYYCAAAGLGTVVSEWDYDYDYWGQGTQVTVSSGGGGSGGGGSASTKGPSVFPLAPSSKSTSGGTAALGCLVKDYFPEPVTVSWNSGALTSGVHTFPAVLQSSGLYSLSSVVTVPSSSLGTQTYICNVNHKPSNTKVDKKVEPKSCDKTHTCPPCPAPELLGGKKKPLDGEYFTLQIRGRERFEMFRELNEALELKDAQAGKEPG
light: B6 light
B8: Q181/Q182 (VHH QB-GB Fab-like Ig-TD) (VHH)
heavy: not shown
light: B6 light
B9: Q184/Q182 (VHH QB-GB Fab-like mIg-TD) (VHH)
heavy: QVQLQESGGGLVQAGGSLRLSCAASGRTFSEYAMGWFRQAPGKEREFVATISWSGGSTYYTDSVKGRFTISRDNAKNTVYLQMNSLKPDDTAVYYCAAAGLGTVVSEWDYDYDYWGQGTQVTVSSGGGGSGGGGSASTKGPSVFPLAPSSKSTSGGTAALGCLVKDYFPEPVTVSWNSGALTSGVHTFPAVLQSSGLYSLSSVVTVPSSSLGTQTYICNVNHKPSNTKVDKKVEPKSCDKTHTAPELLGGPSVFLFPPKPKDTLMISRTPEVTCVVVDVSHEDPEVKFNWYVDGVEVHNAKTKPREEQYNSTYRVVSVLTVLHQDWLNGKEYKCKVSNKALPAPIEKTISKAKGQPREPQVYTLPPSRDELTKNQVSLTCLVKGFYPSDIAVEWESNGQPENNYKTTPPVLDSDGSFFLYSKLTVDKSRWQQGNVFSCSVMHEALHNHYTQKSLSLSPGKKKKPLDGEYFTLQIRGRERFEMFRELNEALELKDAQAGKEPG
light: B6 light
B10: Q183/Q182 (VHH QB-GB Fab-like TD) (VHH)
heavy: QVQLQESGGGLVQAGGSLRLSCAASGRTFSEYAMGWFRQAPGKEREFVATISWSGGSTYYTDSVKGRFTISRDNAKNTVYLQMNSLKPDDTAVYYCAAAGLGTVVSEWDYDYDYWGQGTQVTVSSGGGGSGGGGSASTKGPSVFPLAPSSKSTSGGTAALGCLVKDYFPEPVTVSWNSGALTSGVHTFPAVLQSSGLYSLSSVVTVPSSSLGTQTYICNVNHKPSNTKVDKKVEPKSCDKTHTKKKPLDGEYFTLQIRGRERFEMFRELNEALELKDAQAGKEPG
light: B6 light
B11: Q185B (tandem GB VHH-hinge-TD) (VHH)
chain: QVQLQESGGGLVQAGGSLRLSCAASGRTFSEYAMGWFRQAPGKEREFVATISWSGGSTYYTDSVKGRFTISRDNAKNTVYLQMNSLKPDDTAVYYCAAAGLGTVVSEWDYDYDYWGQGTQVTVSSGGSGGSQVQLQESGGGLVQAGGSLRLSCAASGRTFSEYAMGWFRQAPGKEREFVATISWSGGSTYYTDSVKGRFTISRDNAKNTVYLQMNSLKPDDTAVYYCAAAGLGTVVSEWDYDYDYWGQGTQVTVSSGGGGSGGGGSEPKSCDKTHTCPPCPAPELLGGKKKPLDGEYFTLQIRGRERFEMFRELNEALELKDAQAGKEPG
B12: QB-FE mIg-TD Quad (VHH)
VHH: QVQLVESGGGSVQAGGSLRLSCAASGTIAHIKYLGWFRQAPGKEREGVAALMTKWGQTYYADSVKGRFTVSLDNAKNTVYLQMNSLKPEDTALYYCAAASYGANFPLKASDYSYWGQGTQVTVSS
notes: as m58

Legend:
SARS-CoV-2 RBD protein [1] = molecular target: T1, SARS-CoV-2 RBD protein (SARS-CoV-2, UniProt P0DTC2 319-541)
SARS-CoV-2 RBD protein [2] = molecular target: T1, SARS-CoV-2 RBD protein; remark: listed apart in the source
SARS-CoV-2 RBD protein [3] = molecular target: T1, SARS-CoV-2 RBD protein; assay: indirect binding ELISA, CoV-2 RBD coated
SARS-CoV-2 RBD protein [4] = molecular target: T1, SARS-CoV-2 RBD protein; remark: listed apart in the source
SARS-CoV-2 RBD protein [5] = molecular target: T1, SARS-CoV-2 RBD protein; assay: competitive ELISA as for the GB Quads, ACE2 Ig coated

| Binder | IC50 (SARS-CoV-2 RBD protein [1]) [pM] | also measured |
| --- | --- | --- |
| B1 | 64.9 |  |
| B2 | 185 |  |
| B3 | 23.7 | IC50 (SARS-CoV-2 RBD protein [2]): 14.7 pM |
| B4 | 32.8 |  |
| B5 |  | binding result (SARS-CoV-2 RBD protein [3]): no binding (tested: 100 nM) |
| B6 | 77.8 |  |
| B7 | 14.8 | IC50 (SARS-CoV-2 RBD protein [2]): 8.3 pM |
| B8 | 15.4 |  |
| B9 | 34.2 |  |
| B10 | 31.2 |  |
| B11 |  | IC50 (SARS-CoV-2 RBD protein [4]): 0.03 pM |
| B12 |  | IC50 (SARS-CoV-2 RBD protein [5]): 80 pM |
